# Test results: US20110237503A1 (Eli Lilly, published 2011)
# Where no end group is shown, it is not given here. Side-chain parts run from the residue outwards. [ ]: non-standard residue; d: D form. maleimide = maleimide end of mPEG-20 kDa maleimide, which attaches the 20 kDa PEG to the Cys thiol; 1Nal = N[C@@H](Cc1cccc2ccccc12)C(=O)O; Aib = CC(C)(N)C(=O)O
# T1: human glucose-dependent insulinotropic polypeptide receptor (hGIP-R) (human, UniProt P48546 22-466)
# T1 construct: whole, on cells; The cAMP assay uses the whole cells; also called glucose-dependent insulinotropic peptide receptor
# T1 sequence (looked up): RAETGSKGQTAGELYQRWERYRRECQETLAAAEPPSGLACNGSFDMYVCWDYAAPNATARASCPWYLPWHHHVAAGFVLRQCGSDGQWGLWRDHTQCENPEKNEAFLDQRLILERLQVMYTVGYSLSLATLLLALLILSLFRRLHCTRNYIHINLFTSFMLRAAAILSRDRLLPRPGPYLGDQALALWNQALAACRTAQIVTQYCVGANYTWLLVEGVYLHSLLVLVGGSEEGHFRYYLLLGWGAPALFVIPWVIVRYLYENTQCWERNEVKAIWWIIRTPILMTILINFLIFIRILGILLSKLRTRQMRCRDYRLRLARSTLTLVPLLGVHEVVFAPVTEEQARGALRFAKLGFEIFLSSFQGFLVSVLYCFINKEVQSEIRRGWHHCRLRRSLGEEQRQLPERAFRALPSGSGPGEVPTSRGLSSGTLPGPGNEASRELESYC
# Target: T2, human glucagon receptor (hGlucR) (human, UniProt P47871 26-477)
# T2 construct: whole, on cells
# Experiment: ratio of Ki values from SPA competition binding assays (Gluc-R against GIP-R and GLP-1-R)
# T2 sequence (P47871 26-477): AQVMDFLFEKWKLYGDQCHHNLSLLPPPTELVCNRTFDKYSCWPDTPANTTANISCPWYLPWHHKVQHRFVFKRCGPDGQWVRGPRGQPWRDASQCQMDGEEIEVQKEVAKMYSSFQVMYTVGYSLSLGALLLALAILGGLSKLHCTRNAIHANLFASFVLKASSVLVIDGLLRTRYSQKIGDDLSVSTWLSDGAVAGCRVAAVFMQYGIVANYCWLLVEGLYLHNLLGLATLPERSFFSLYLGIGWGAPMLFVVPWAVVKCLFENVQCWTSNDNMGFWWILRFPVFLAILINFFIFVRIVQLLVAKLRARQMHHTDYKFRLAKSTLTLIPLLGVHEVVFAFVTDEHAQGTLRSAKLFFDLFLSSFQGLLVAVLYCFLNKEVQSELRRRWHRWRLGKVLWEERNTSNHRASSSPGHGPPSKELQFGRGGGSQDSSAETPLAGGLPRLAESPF
row,Binder,selectivity ratio versus Gluc-R [times]
1,"Y[Aib]EGTFTSDYSI[Aib]LDKIAQRAFVQWLIA[Aib]KGKKQEWKHQITQ (not fully specified (C-terminus), Not PEGylated) [Example 2 (Aib2, Aib13, Aib29 GIP analog, 42 residues)]",≥ 100
2,Y[Aib]EGTFTSDYSI[Aib]LDKIAQRA[1Nal]VQWLIA[Aib]KGKKQEWKHQITQC([acetamide-mPEG 20 kDa])C([acetamide-mPEG 20 kDa])-NH2,≥ 100
3,"Y[Aib]EGTFTSDYSI[Aib]LDKIAQRA[1Nal]VQWLIA[Aib]KGKKQEWKHQITQ (not fully specified (C-terminus), Not PEGylated) [Example 1 (Aib2, Aib13, Nal22, Aib29 GIP analog, 42 residues)]",≥ 100
4,"Y[Aib]EGTFTSDYSI[Aib]LDKIAQRAFVQWLIA[Aib]KGKKQEWKHQITQC([maleimide-mPEG 20 kDa])C([maleimide-mPEG 20 kDa])-NH2 [Aib2, Aib13, Aib29, Cys43(PEG20K), Cys44(PEG20K)-GIP (Example 3, PEGylated with mPEG-MAL)]",≥ 100
5,"Y[Aib]EGTFTSDYSI[Aib]LDKIAQRA[1Nal]VQWLIA[Aib]KGKKQEWKHQITQC([maleimide-mPEG 20 kDa])C([maleimide-mPEG 20 kDa])-NH2 (also called Ex 4) [Aib2, Aib13, Nal22, Aib29, Cys43(PEG20K), Cys44(PEG20K)-GIP (Example 4, PEGylated with mPEG-MAL)]",≥ 100

# Target: T3, human glucagon-like peptide 1 receptor (hGLP-1-R) (human, UniProt P43220 24-463)
# Experiment: cell-based or functional assay
row,Binder,"EC50 (relative), intracellular cAMP in hGLP-1-R-293HEK cells, HTRF [nM]"
1,"Y[Aib]EGTFTSDYSI[Aib]LDKIAQRAFVQWLIA[Aib]KGKKQEWKHQITQ (not fully specified (C-terminus), Not PEGylated) [Example 2 (Aib2, Aib13, Aib29 GIP analog, 42 residues)]",0.045
2,Y[Aib]EGTFTSDYSI[Aib]LDKIAQRA[1Nal]VQWLIA[Aib]KGKKQEWKHQITQC([acetamide-mPEG 20 kDa])C([acetamide-mPEG 20 kDa])-NH2,0.959
3,"Y[Aib]EGTFTSDYSI[Aib]LDKIAQRA[1Nal]VQWLIA[Aib]KGKKQEWKHQITQ (not fully specified (C-terminus), Not PEGylated) [Example 1 (Aib2, Aib13, Nal22, Aib29 GIP analog, 42 residues)]",0.036
4,"Y[Aib]EGTFTSDYSI[Aib]LDKIAQRAFVQWLIA[Aib]KGKKQEWKHQITQC([maleimide-mPEG 20 kDa])C([maleimide-mPEG 20 kDa])-NH2 [Aib2, Aib13, Aib29, Cys43(PEG20K), Cys44(PEG20K)-GIP (Example 3, PEGylated with mPEG-MAL)]",1.11
5,"Y[Aib]EGTFTSDYSI[Aib]LDKIAQRA[1Nal]VQWLIA[Aib]KGKKQEWKHQITQC([maleimide-mPEG 20 kDa])C([maleimide-mPEG 20 kDa])-NH2 (also called Ex 4) [Aib2, Aib13, Nal22, Aib29, Cys43(PEG20K), Cys44(PEG20K)-GIP (Example 4, PEGylated with mPEG-MAL)]",0.844

# Target: T3, human glucagon-like peptide 1 receptor …
# Experiment: SPA competition, I-125 GLP-1 displacement, hGLP-1-R 293HEK membranes
# Protocol: The binding buffer contains 25 mM HEPES, pH 7.4, 2.5 mM CaCl₂, 1 mM MgCl₂, 0.1% fatty acid free BSA, 0.003% Tween20, and Roche Complete™ Inhibitors without EDTA. […] The peptide analog is dissolved in PBS and serially diluted in binding buffer. […] Plates are read with a PerkinElmer Life and Analytical Sciences Trilux MicroBeta® scintillation counter after 12 hours of settling time at room temperature.
# The IC₅₀ concentration is converted to Ki using the Cheng-Prusoff equation.
row,Binder,Ki [nM]
1,"Y[Aib]EGTFTSDYSI[Aib]LDKIAQRAFVQWLIA[Aib]KGKKQEWKHQITQ (not fully specified (C-terminus), Not PEGylated) [Example 2 (Aib2, Aib13, Aib29 GIP analog, 42 residues)]",0.059
2,Y[Aib]EGTFTSDYSI[Aib]LDKIAQRA[1Nal]VQWLIA[Aib]KGKKQEWKHQITQC([acetamide-mPEG 20 kDa])C([acetamide-mPEG 20 kDa])-NH2,6.2
3,"Y[Aib]EGTFTSDYSI[Aib]LDKIAQRA[1Nal]VQWLIA[Aib]KGKKQEWKHQITQ (not fully specified (C-terminus), Not PEGylated) [Example 1 (Aib2, Aib13, Nal22, Aib29 GIP analog, 42 residues)]",0.096
4,"Y[Aib]EGTFTSDYSI[Aib]LDKIAQRAFVQWLIA[Aib]KGKKQEWKHQITQC([maleimide-mPEG 20 kDa])C([maleimide-mPEG 20 kDa])-NH2 [Aib2, Aib13, Aib29, Cys43(PEG20K), Cys44(PEG20K)-GIP (Example 3, PEGylated with mPEG-MAL)]",9
5,"Y[Aib]EGTFTSDYSI[Aib]LDKIAQRA[1Nal]VQWLIA[Aib]KGKKQEWKHQITQC([maleimide-mPEG 20 kDa])C([maleimide-mPEG 20 kDa])-NH2 (also called Ex 4) [Aib2, Aib13, Nal22, Aib29, Cys43(PEG20K), Cys44(PEG20K)-GIP (Example 4, PEGylated with mPEG-MAL)]",5.27

# Target: T1, human glucose-dependent insulinotropic …
# Experiment: SPA competition binding assay
row,Binder,Ki [nM]
1,"Y[Aib]EGTFTSDYSI[Aib]LDKIAQRAFVQWLIA[Aib]KGKKQEWKHQITQ (not fully specified (C-terminus), Not PEGylated) [Example 2 (Aib2, Aib13, Aib29 GIP analog, 42 residues)]",< 100
2,Y[Aib]EGTFTSDYSI[Aib]LDKIAQRA[1Nal]VQWLIA[Aib]KGKKQEWKHQITQC([acetamide-mPEG 20 kDa])C([acetamide-mPEG 20 kDa])-NH2,< 100
3,"Y[Aib]EGTFTSDYSI[Aib]LDKIAQRA[1Nal]VQWLIA[Aib]KGKKQEWKHQITQ (not fully specified (C-terminus), Not PEGylated) [Example 1 (Aib2, Aib13, Nal22, Aib29 GIP analog, 42 residues)]",< 100
4,"Y[Aib]EGTFTSDYSI[Aib]LDKIAQRAFVQWLIA[Aib]KGKKQEWKHQITQC([maleimide-mPEG 20 kDa])C([maleimide-mPEG 20 kDa])-NH2 [Aib2, Aib13, Aib29, Cys43(PEG20K), Cys44(PEG20K)-GIP (Example 3, PEGylated with mPEG-MAL)]",< 100
5,"Y[Aib]EGTFTSDYSI[Aib]LDKIAQRA[1Nal]VQWLIA[Aib]KGKKQEWKHQITQC([maleimide-mPEG 20 kDa])C([maleimide-mPEG 20 kDa])-NH2 (also called Ex 4) [Aib2, Aib13, Nal22, Aib29, Cys43(PEG20K), Cys44(PEG20K)-GIP (Example 4, PEGylated with mPEG-MAL)]",< 100

# Target: T3, human glucagon-like peptide 1 receptor …
# Experiment: SPA competition binding assay
row,Binder,Ki [nM]
1,"Y[Aib]EGTFTSDYSI[Aib]LDKIAQRAFVQWLIA[Aib]KGKKQEWKHQITQ (not fully specified (C-terminus), Not PEGylated) [Example 2 (Aib2, Aib13, Aib29 GIP analog, 42 residues)]",< 100
2,Y[Aib]EGTFTSDYSI[Aib]LDKIAQRA[1Nal]VQWLIA[Aib]KGKKQEWKHQITQC([acetamide-mPEG 20 kDa])C([acetamide-mPEG 20 kDa])-NH2,< 100
3,"Y[Aib]EGTFTSDYSI[Aib]LDKIAQRA[1Nal]VQWLIA[Aib]KGKKQEWKHQITQ (not fully specified (C-terminus), Not PEGylated) [Example 1 (Aib2, Aib13, Nal22, Aib29 GIP analog, 42 residues)]",< 100
4,"Y[Aib]EGTFTSDYSI[Aib]LDKIAQRAFVQWLIA[Aib]KGKKQEWKHQITQC([maleimide-mPEG 20 kDa])C([maleimide-mPEG 20 kDa])-NH2 [Aib2, Aib13, Aib29, Cys43(PEG20K), Cys44(PEG20K)-GIP (Example 3, PEGylated with mPEG-MAL)]",< 100
5,"Y[Aib]EGTFTSDYSI[Aib]LDKIAQRA[1Nal]VQWLIA[Aib]KGKKQEWKHQITQC([maleimide-mPEG 20 kDa])C([maleimide-mPEG 20 kDa])-NH2 (also called Ex 4) [Aib2, Aib13, Nal22, Aib29, Cys43(PEG20K), Cys44(PEG20K)-GIP (Example 4, PEGylated with mPEG-MAL)]",< 100

# Target: T1, human glucose-dependent insulinotropic …
# Experiment: cell-based or functional assay
row,Binder,"EC50 (relative), intracellular cAMP in hGIP-R-CHO-S cells, HTRF [nM]"
1,"Y[Aib]EGTFTSDYSI[Aib]LDKIAQRAFVQWLIA[Aib]KGKKQEWKHQITQ (not fully specified (C-terminus), Not PEGylated) [Example 2 (Aib2, Aib13, Aib29 GIP analog, 42 residues)]",0.023
2,Y[Aib]EGTFTSDYSI[Aib]LDKIAQRA[1Nal]VQWLIA[Aib]KGKKQEWKHQITQC([acetamide-mPEG 20 kDa])C([acetamide-mPEG 20 kDa])-NH2,0.207
3,"Y[Aib]EGTFTSDYSI[Aib]LDKIAQRA[1Nal]VQWLIA[Aib]KGKKQEWKHQITQ (not fully specified (C-terminus), Not PEGylated) [Example 1 (Aib2, Aib13, Nal22, Aib29 GIP analog, 42 residues)]",0.005
4,"Y[Aib]EGTFTSDYSI[Aib]LDKIAQRAFVQWLIA[Aib]KGKKQEWKHQITQC([maleimide-mPEG 20 kDa])C([maleimide-mPEG 20 kDa])-NH2 [Aib2, Aib13, Aib29, Cys43(PEG20K), Cys44(PEG20K)-GIP (Example 3, PEGylated with mPEG-MAL)]",0.244
5,"Y[Aib]EGTFTSDYSI[Aib]LDKIAQRA[1Nal]VQWLIA[Aib]KGKKQEWKHQITQC([maleimide-mPEG 20 kDa])C([maleimide-mPEG 20 kDa])-NH2 (also called Ex 4) [Aib2, Aib13, Nal22, Aib29, Cys43(PEG20K), Cys44(PEG20K)-GIP (Example 4, PEGylated with mPEG-MAL)]",0.277

# Target: T1, human glucose-dependent insulinotropic …
# Experiment: SPA competition, [125I]GIP displacement, hGIP-R CHO-S membranes
# Protocol: The peptides analogs are serially diluted into binding buffer. […] Then, 90 μL membranes (4 μg/well), 50 μL [¹²⁵I] […] Plates are read with a MicroBeta® scintillation counter after 12 hours of settling time at room temperature.
row,Binder,Ki [nM]
1,"Y[Aib]EGTFTSDYSI[Aib]LDKIAQRAFVQWLIA[Aib]KGKKQEWKHQITQ (not fully specified (C-terminus), Not PEGylated) [Example 2 (Aib2, Aib13, Aib29 GIP analog, 42 residues)]",0.023
2,Y[Aib]EGTFTSDYSI[Aib]LDKIAQRA[1Nal]VQWLIA[Aib]KGKKQEWKHQITQC([acetamide-mPEG 20 kDa])C([acetamide-mPEG 20 kDa])-NH2,9.22
3,"Y[Aib]EGTFTSDYSI[Aib]LDKIAQRA[1Nal]VQWLIA[Aib]KGKKQEWKHQITQ (not fully specified (C-terminus), Not PEGylated) [Example 1 (Aib2, Aib13, Nal22, Aib29 GIP analog, 42 residues)]",0.044
4,"Y[Aib]EGTFTSDYSI[Aib]LDKIAQRAFVQWLIA[Aib]KGKKQEWKHQITQC([maleimide-mPEG 20 kDa])C([maleimide-mPEG 20 kDa])-NH2 [Aib2, Aib13, Aib29, Cys43(PEG20K), Cys44(PEG20K)-GIP (Example 3, PEGylated with mPEG-MAL)]",9.79
5,"Y[Aib]EGTFTSDYSI[Aib]LDKIAQRA[1Nal]VQWLIA[Aib]KGKKQEWKHQITQC([maleimide-mPEG 20 kDa])C([maleimide-mPEG 20 kDa])-NH2 (also called Ex 4) [Aib2, Aib13, Nal22, Aib29, Cys43(PEG20K), Cys44(PEG20K)-GIP (Example 4, PEGylated with mPEG-MAL)]",8.23
